Data on 16 sequences can be found in the DeepSol protein solubility set.

The data set is described as follows: soluble on expression in E. coli; label from the status in PepcDB or PDB records.
On to “MSLSQSLWQRLFNHRQQTKQAVLILGSGRSGTSVMTKCVNLMGISLGTDNLLAPSKRINPKGYFENKDVINIHKSLGSRIRYRPAFKDYYDSPKIKKDRAALTTYLRNFFENEQYLAIKDPRMNDYIELWQRVLADVEVQPAEIVLLRNPMDVVNSNERAWHRDTTLAMRQWQVRTLLSLRDTDREHRILVTYEDLFGQTLTTLKRIATQFNLPWTSDEAALQAQIDDFIDPALQKSDSGENLADFEARTDVKPDVKALYLLGRQAAADPDYFASAEFQQRIDEMTDEYLAKYGALYRDFNEGHHHHHH”, for which the “soluble on expression in E. coli” value was “soluble”. Consider “MSLSRGRLKIAVPRLQRVANFDDLDPLVAEPDIDLQWIQPGSPIPADVDVVVLPGSKATRTELDLMRREGWDIDIHAHVRRGGRVVGLCAGFQMLGKVVRDPQGIEGPAGETAGLGLLDIETEISGDKRLIEIDAVDRISGCRVVGYEMHMGRTTGAGLARPWLRLEEGGSERAEGAVSADGRVSGGYLHGIFGGDAFRSAWLAQIGAASSGLDFERRVEETLDALADHCESNLDLDALLALAREGHHHHHH”, for which the “soluble on expression in E. coli” value is on record as “soluble”. Regarding “MSLSSPNILLTRIDNRLVHGQVGVTWTSTIGANLLVVVDDVVANDDIQQKLMGITAETYGFGIRFFTIEKTINVIGKAAPHQKIFLICRTPQTVRKLVEGGIDLKDVNVGNMHFSEGKKQISSKVYVDDQDLTDLRFIKQRGVNVFIQDVPGDQKEQIPDEGHHHHHH”, the “soluble on expression in E. coli” value was “soluble”. For “MSLSTDDTLWREFLQVWPLERLREMTLAEYTTAGDKDCFVYWLEFRLVDYGSIAGGSAFKFAIFSRKETGAREGDTSLAYDDRYGWYRRFGTSPEEAFQTIRGHVVAVAEAARDGRLDEIDNSPLGAAYRWKIAFHYQPLRNPSTPCVYVRKPLLHFLGLSAADTTTPQSELYQALARLRQADESIFVFSERLWKDWVADTPFVVKLSEGAIKHGYLPVNLISAPFPETMYGGKTPNEAADVAHFRTDTGLEFDTDLRVSSPGSARLRHRLGGYFEDIGAAAGDLITLTQDGDGTYLLSSKLAVHAIGPTASAATITARASVKEAAAVRPPLNQILFGPPGTGKTYEAIEKALEILDPSFLLQLGDDESNERRRALKRRYDELAKEGLVQFVTFHQSFSYENFVEGLSASSDPDTKQVRYEVEDGVFKELCESARTRLVRRSDDAPLELSGRRIWKLSLGDSITEGHIFEECMEKGLALMGFGNNADFSQCQSREDIQKMFAASGEPLSLGAYPITAIKTFVCQMKLGDLIVVSEGNLKFRAIGEITGDYQLLPRDSDTYSQARPVRWLRGYKPALPYGALMENRFSQMTVYELRAGSIDHDKFRELLKSECIATGADRPHVLIIDEINRGNVSRIFGELITLIEPSKRSGAAEALEVLLPYSKDPFSVPDNVYLIGTMNTADRSLAGLDIALRRRFDFVEMAPRPDKLTGVKVAEIDISAVLETMNRRIEVLLDREHRLGHAYFMSLENSNDLSRLSNIFRQQIIPLLQEYFFEDWQRIAWILNDHRKDERFRFIVPAPYSVDSLFGDTGQVAQDSKAWRMNEEAFHKPQSYLGIVGDGKEGHHHHHH”, the “soluble on expression in E. coli” value is “not soluble”. Take “MSLSTEPLASRMRPKNIDEIISQQHLVGPRGIIRRMVDTKKLTSMIFYGPPGIGKTSIAKAISGSTQYKFRQLNAVTNTKKDMQLVVEEAKMSGQVILLLDEIHRLDKAKQDFLLPHLENGKIVLIGATTSNPYHAINPAIRSRAQIFELYPLNDEDVRQALTRAIEDDENGLKTYQPKIDEDAMTYFSTQSQGDVRSALNALELAVLSADNDKDGYRHVTLQDAKDCLQKGAFVSDKDGDMHYDVMSAFQKSIRGSDVNAALHYLARLIEAGDLPTIVRRLLVISYEDIGLASPNAGQRTLAAIESAERLGLPEARIPLSQAVIELCLSPKSNSAMSAIDSALSDIRNGHVGQIPNHLKDGHYQGAKDLGRSIGYKYPHQYVNGYVSQQYLPDKLKNKIYYEPKTTSKSEQQLKEIYNNLLKEGHHHHHH”: the “soluble on expression in E. coli” value is “soluble”. Turning to “MSLSTHYHAHKPNVPIIMEDVFGWVREGNAFQVRVWLDDHEHDLNVGDDHAFSLLHWAAKGGHVAIAEMLLSRGARVNSTNMGDDTSLHLAAAHGHRQIVVKLLSRKADVNATNEHGMTPLHYACFWGYEQIAEDLISCGAAVNVCNKKGMTPLDVCQPMCKNTILEIAQEHGQSPNDRVPFKDTTWKGTKSRTRDATLSRYTGVDVSSLNLITKIAESHSGELWRGKWQGNDIVARILNVQEVTARISRDFQTEFPALRIFAHPNICAVLAAANQPPNLVIISQYMPFGSLYNVLHEQSSVVIDHGQAVRFALDIARGMSYLHSLDPMLLRFYLSSKHVVVDEELTAKLSMADTKFSFQEVGKAYSPAWMSPEALSRAPEDLNIRAADMWSFAILLWELNTREVPFSDLPPMECGMKIALEGLRVHIPPGIARNMNRLMNICMNEDPGRRPNFDQIIPILERMIL”, the “soluble on expression in E. coli” value is reported as “not soluble”. As for “MSLSTIDLHVHSNYSDGIHPPADLVKMAAERGLVAIAIADHDTVDGIDEALIAGARLGVEVVPAVELSAEHGRYRDMHILGYHLDHRDPRLVDMLAEFRINREIRGRAIVDKINQRLADGRKPLLSYDEVLNLAEGAVGRPHIGRMLIERGYARNMEDAFRRYLIPCNVPKRYIPAGDAITEIRRAGGVAVLAHPITVSDDRQVLRGIVSELVALGLDGIEVFNNMCYKDDMLFLEFLCRESGLLMTGGSDFHGFEDDVEIGSGRGGLAVSHRLAEAVKNLAESRRITPPGSRTEGHHHHHH”, the “soluble on expression in E. coli” value is “soluble”. “MSLSTIGSMMSIYSEAGDFGNIFVTGRIAFSLKYEQQTQSLVVHVKECHQLAYADEAKKRSNPYVKTYLLPDKSRQGKRKTSIKRDTVNPLYDETLRYEIPESLLAQRTLQFSVWHHGRFGRNTFLGEAEIQMDSWKLDKKLDHCLPLHGKISAESPTGLPSHKGELVVSLKYIPASKTPVGGDRKKSKGGEGGELQVWIKEAKNLTAAKAGGTSDSFVKGYLLPMRNKASKRKTPVMKKTLNPHYNHTFVYNGVRLEDLQHMCLELTVWDREPLASNDFLGGVRLGVGTGISNGEVVDWMDSTGEEVSLWQKMRQYEGHHHHHH”: the “soluble on expression in E. coli” value is reported as “not soluble”. In the case of “MSLSVAIRVKDLTKKYKLYQKRSERLANAFGKEKNIKEFYALKGVSFEISKGECVGIIGHNGAGKSTLLKLLTGVAFPTSGEIEINGRLASMLELGSGFNPELTGMENIYFNGSLNGLTKEEIDGKLKDILEFADIGNFIEQPVKNYSSGMFARLAFAVAINVDPDILIVDEILSVGDVGFQVKCMEKFNEFKKKGKTILYVSHGLGTVKKFCDRAIWLQKGEVVDDGNSVIVVERYYNLNFNPANIEQLKDHKSDIINSIAVKSNTKNVEYLEKLDLEVEYDLISNDLKDPNIVLEFRKTDYEPGTTRGNDQFVCGINSKDNIKNIPFNLGVNKLKVSLNKVNLVAGVYYIDFVLRDGEEEVYRKINGYSFTLNEGHHHHHH”, the “soluble on expression in E. coli” value is “soluble”.

As for “MSLTARSVVLSVLLGAHPAWATASELIQLTADFGIKETTLRVALTRMVGAGDLVRSADGYRLSDRLLARQRRQDEAMRPRTRAWHGNWHMLIVTSIGTDARTRAALRTCMHHKRFGELREGVWMRPDNLDLDLESDVAARVRMLTARDEAPADLAGQLWDLSGWTEAGHRLLGDMAAATDMPGRFVVAAAMVRHLLTDPMLPAELLPADWPGAGLRAAYHDFATAMAKRRDATQLLEVTEGHHHHHH”, the “soluble on expression in E. coli” value is “soluble”. In the case of “MSLTDQKPVPVFDGHNDVLLRLWRSGNTSPETLLIEGDTVGHIDLPRARKGGLAGGLCAIYVPSPSMEKDANGDFSTPTEADALKATLGMAALLFRAEKQSAGALKVCRTAADIRSAMAEGAFASVFHIEGAEAIGDDLDALHVLHEAGLRTLGPVWSRPNIFAYGVPFRFPSTPDIGPGLTDTGKRLVKTCNELKIMVDLSHMNEQGFWDIAKISDAPLVASHSNAYALCNHSRNLTEGHHHHHH”, the “soluble on expression in E. coli” value is “soluble”.

As for “MSLTDRIRRLRQESFDTQPSLSIERALIETEFYKENEGKYPIPILRALNFLEICKRKTIYIGEDELIVGERGPRPKAVSTFPELTCHSVEDLHVLNTRELQRYTISQEDIDTYEREVIPYWKGRTQRERIFNHVPKEWKEAYEVGMFTEFMEQRAPGHTSLDGKVYQHGMLDLKERIAHELKNLDFMNDPEATDKQEELTAMSISCDAAIIFAERHAELAEKMAGQETDPKRKEELKKIAEICRWVPAHAPRTYWEAIQMYWFVHLGTITELNGWDAMNPGHFDQHLAPFYEKDLEEGILTRAEAKELMSCFFIKVNNQTAPPKVGITAKESGTYNDFTNLNIGGIKRDGSNGVSEVSYIMLETVDDLHLLQPGSALHISVCTPERFLREGCKVIRKGYGYPSVFNPDTYVMELMRQGKTPEDAREGGCSGCIEVGAFGKEAYILTGYLNVPKILEVTLHNGTDPVSGKKVGLVTGDPCTFRSYEALYDAFLKQIHYFVDMKVRVSNYIDRMFAKYAPATFLSLFIDDCIAKGKDYYNCGPRYNTSYIQCTGLGTITDSLSVLKKHVFEERKFNMEQIIHATDTNFEGQEAMRQFILNRTPFFGNDDEYADRIAIQIFNDLYDAIEGKPNTKGECFHLNMLSTTCHVYFGKMMNATPNGREGHHHHHH”, the “soluble on expression in E. coli” value is given as “soluble”. “MSLTDSFTVRSIEGVCFRYPLATPVVTSFGKMLNRPAVFVRVVDEDGVEGWGEAWSNFPAPGAEHRARLINEVLAPGLVGRKLENPAQAFEVLSKGTEVLALQCGEPGPFAQAISGIDLALWDLFARRRNLPLWRLLGGQSSKIKVYASGINPGGAAQTAEAALKRGHRALKLKVGFGAETDIANLSALLTIVGAGMLAADANQGWSVDQALEMLPRLSEFNLRWLEEPIRADRPREEWRKLRANAKMPIAAGENISSVEDFEAALGDDVLGVIQPDIAKWGGLTVCVELARQILRVGKTFCPHYLGGGIGLLASAHLLAAVGRDGWLEVDANDNPLRDLFCGPVADVREGTIELNQNPGLGIVPDLSAIERYRSIEGHHHHHH”: the “soluble on expression in E. coli” value is reported as “not soluble”.

Turning to “MSLTFELYSGATFFRSRSAATKKVRDMQKERLKYVQEVYKVLATYVNFPKVCLPELIEKSIYEITEEEIVKKAEELRKIWGLDLISPVPNLIQLAEQNGVIISEANMSNPTLDAVSRWMIGRPFIMLTDNHESAVRRRFNVAHELGHILLHNGVESIHEYSQTELKNIIEYQANLFAAHFLLPSAAFSDSLLSISLEYYIDLKKYWKVSLQSMIQKIYTLALINDDQRLYLNKRIAKNKWKTKEPYDEQLTIEQPEVFQKVYHMILEHQVIPASQLNQAFKLPKEEIEKILGTAIQTEQDKTEIVLELLRSNKEGHHHHHH”, the “soluble on expression in E. coli” value is “soluble”. Then “MSLTFSILAHDPETGAIGGAAATGSLCVGGWVLRGDLNAGMSASQGAAPSTFWGEEVLQHLRDGSHPEDAVNHVTSQDSGRAYRQLAAMDLLGNAAAFTGSENQDIKGSVTFASGIASGNMLGDNSVLGAMTEAFVASDLTFERRLLAALIAAEGAGSDFRGLLSAAMLVLHPDRPPVTLRIDYHPDNPIGALEQLYQKATTGDYADWARQVPVLSDKERILDEGHHHHHH”, with “soluble”.

As to “MSLTGLFEPIAPQAPLAERLRPKSLDEVVGQRHLLGEGKPLRLAFTSGKLPSMILWGPPGVGKTTLARLIANTADAEFIPLSAVLAGIKDIREAVERAEHTLQQSGRRTILFVDEVHRFNKGQQDAFLPFVESGLITFIGATTENPSFEVNSALLSRAQVFVLNALSEDELKQLLERGKQEMQLDIPLTPEVVEQVLGYADGDARRLLNFVEGLFNAALTAGVTKIDAEFLQSTMASKLRRFDKGGEAFYDQISALHKSVRGSNPDAALYWFLRMLDGGADPLYLGRRIVRMAVEDIGIADPRAQTMALEACQIYERLGSPEGELALSNAVIYLAVAAKSNAAYMAYNQAKAFVASDKSRPVPLHLRNAPTKLMKDLNYGKEYRYAHNEPGAYAAGEDYFPDGLEAIQFYVPTQRGLEGKISEKMAHLRALDEEARSKEGHHHHHH”, the “soluble on expression in E. coli” value was “soluble”.
